Data taken from patent US20250170067A1 (published 2025).

Legend:
[1] = biological target: VEGF (UniProt P15692); assay: co-incubation of VEGF with particles, particulate removed, free VEGF in supernatant measured by ELISA
[2] = biological target: AB160 (nanoparticle of albumin-bound paclitaxel and bevacizumab, ratio about 10:4, average size 160 nm) (UniProt P02768); assay: flow cytometry of particles stained with goat anti-mouse IgG and PE
[3] = biological target: T1, ABRAXANE® / albumin-bound paclitaxel (UniProt P02768 25-609, paclitaxel non-covalently bound); assay: as above
T1 construct: Nanoparticle of many albumin molecules with paclitaxel, not a single polypeptide; also called ABX; Paclitaxel Albumin-stabilized Nanoparticle Formulation

[4] = biological target: T1, ABRAXANE® / albumin-bound paclitaxel; assay: co-incubation of VEGF with particles, particulate removed, free VEGF in supernatant measured by ELISA
Description: AB160 was prepared as described and 2000 μg/ml VEGF was added to the AB160 complex or ABX alone. The VEGF was incubated with the nanoparticles for 2 hours at room temperature. The suspension was spun at 6000 rpm for 15 minutes, supernatants were collected and free VEGF was measured by ELISA. Briefly, ELISA plates were coated with capture antibody overnight at 4° C. Plates were washed, blocked and standards and samples were added. After washing, detection antibody was added and plates were developed with substrate (R and D Systems, Minneapolis, MN). Absorbance was measured at 450 nm using a Versamax ELISA plate reader (Molecular Devices, Sunnyvale, CA). The concentration of unbound VEGF was determined with a standard curve from 0 to 2000 μg/ml.

AB160 (nanoparticle of albumin-bound paclitaxel and bevacizumab, ratio about 10:4, average size 160 nm) (from UniProt P02768 25-609)
% VEGF unbound [1]: < 10%

goat anti-mouse IgG (antibody)
% positive [2]: 41.2%
% positive [3]: 6.7%

B1: VEGF (ligand, UniProt P15692-4 27-191, looked up)
chain: APMAEGGGQNHHEVVKFMDVYQRSYCHPIETLVDIFQEYPDEIEYIFKPSCVPLMRCGGCCNDEGLECVPTEESNITMQIMRIKPHQGQHIGEMSFLQHNKCECRPKKDRARQENPCGPCSERRKHLFVQDPQTCKCSCKNTDSRCKARQLELNERTCRCDKPRR
binding result [4]: no binding (tested: 2000 µg/ml VEGF)
